This passage reports binding result and peptide exchange yield results from patent US11352401.

The target in one assay is HLA-A*24:02 (human). The assay is described as follows: preformed pMHC complex on aAPC beads and as fluorescent multimer, in vitro CD8+ T cell priming. As to the method: (§1) Viable singlet cells were gated for CD8+ lymphocytes. Boolean gates helped excluding false-positive events detected with multimers specific for different peptides.
(§2) 800.000 beads/200 μl were coated in 96-well plates in the presence of 4×12.5 ng different biotin-pMHC, washed and 600 ng biotin anti-CD28 were added subsequently in a volume of 200 μl. […] Half of the medium was then exchanged by fresh TCM supplemented with 80 U/ml IL-2 and incubating was continued for 4 days at 37° C. This stimulation cycle was performed for a total of three times. For the pMHC multimer readout using 8 different pMHC molecules per condition, a two-dimensional combinatorial coding approach was used as previously described (Andersen et al., 2012) with minor modifications encompassing coupling to 5 different fluorochromes. Finally, multimeric analyses were performed by staining the cells with Live/dead near IR dye (Invitrogen, Karlsruhe, Germany), CD8-FITC antibody clone SK1 (BD, Heidelberg, Germany) and fluorescent pMHC multimers. For analysis, a BD LSRII SORP cytometer equipped with appropriate lasers and filters was used. Peptide specific cells were calculated as percentage of total CD8+ cells. Evaluation of multimeric analysis was done using the FlowJo software (Tree Star, Oregon, USA). In vitro priming of specific multimer+CD8+ lymphocytes was detected by comparing to negative control stimulations.

Another assay addresses T1, HLA-A*02 (human).
T1 construct: MHC monomer made peptide-receptive by UV cleavage of a UV-sensitive ligand; also called peptide-receptive MHC class I monomer
Briefly: UV peptide-exchange ELISA; +++ = yield >50%. For orientation: An ELISA detects its analyte on a solid surface through an enzyme-linked reagent.

For assay [1], the target named is HLA-A*02:01 (human). Briefly: preformed pMHC complex on aAPC beads and as fluorescent multimer, in vitro CD8+ T cell priming. As to the method: as §1, §2
Assay [2] addresses HLA-A*02:01 (human). Briefly: preformed control pMHC complex for aAPC stimulation. The method, then: as §2
The target of another assay is T2, HLA-A*01 (human).
T2 construct: MHC monomer made peptide-receptive by UV cleavage of a UV-sensitive ligand; also called peptide-receptive MHC class I monomer
The assay is described as follows: UV peptide-exchange ELISA; ++ = yield >20%. The text has this:
(§3) Candidate peptides for T cell based therapies according to the present invention were further tested for their MHC binding capacity (affinity). The individual peptide-MHC complexes were produced by UV-ligand exchange, where a UV-sensitive peptide is cleaved upon UV-irradiation, and exchanged with the peptide of interest as analyzed. Only peptide candidates that can effectively bind and stabilize the peptide-receptive MHC molecules prevent dissociation of the MHC complexes. To determine the yield of the exchange reaction, an ELISA was performed based on the detection of the light chain (β2m) of stabilized MHC complexes. The assay was performed as generally described in Rodenko et al. (Rodenko et al., 2006).
(§4) 96 well MAXISorp plates (NUNC) were coated over night with 2 ug/ml streptavidin in PBS at room temperature, washed 4× and blocked for 1 h at 37° C. in 2% BSA containing blocking buffer. […] Peptide-MHC monomers of the UV-exchange reaction were diluted 100-fold in blocking buffer. Samples were incubated for 1 h at 37° C., washed four times, incubated with 2 ug/ml HRP conjugated anti-β2m for 1h at 37° C., washed again and detected with TMB solution that is stopped with […]. Absorption was measured at 450 nm.

The target in a further assay is T3, HLA-B*08 (human).
T3 construct: MHC monomer made peptide-receptive by UV cleavage of a UV-sensitive ligand; also called peptide-receptive MHC class I monomer
The assay is described as follows: UV peptide-exchange ELISA; +++ = yield >50%.

The next assay addresses T4, HLA-A*24 (human).
T4 construct: MHC monomer made peptide-receptive by UV cleavage of a UV-sensitive ligand; also called peptide-receptive MHC class I monomer
Briefly: UV peptide-exchange ELISA; + = yield >10%.
Text: as §3, §4

VYEKNGYIYF (Synthetic peptide) [SeqID No 504 peptide (VYEKNGYIYF)]: in the assay with HLA-A*24:02, the binding result is listed as “binds”.
In turn, FIISDWRFVL [FIISDWRFVL (SEQ ID NO: 101)] had a peptide exchange yield with HLA-A*02 of 50 to 75%.
For KIQEMQHFL (Synthetic peptide) [SeqID No 520 peptide (KIQEMQHFL)], the binding result with HLA-A*02:01 [1] is listed as “binds”.

B1: DDX5-001 (YLLPAIVHI from DDX5) (peptide)
peptide: YLLPAIVHI
notes: Negative control peptide for T cell stimulations (still a pMHC complex with A*02:01); also called 533
Regarding B1, in the assay with HLA-A*02:01 [2], the binding result is “binds”.
In the case of NLRDLLSEV [NLRDLLSEV (SEQ ID NO: 92)], the peptide exchange yield with HLA-A*02 lay within 50 to 75%.
Regarding SSDSSTLPKL [SSDSSTLPKL (SEQ ID NO: 178)], the peptide exchange yield with HLA-A*01 was in the range of 20 to 50%.
On to VASPKHCVL [VASPKHCVL (SEQ ID NO: 300)], for which the peptide exchange yield with HLA-B*08 was in the range of 50 to 75%.
With AYTLLGHEFV [AYTLLGHEFV (SEQ ID NO: 77)], the peptide exchange yield with HLA-A*24 was 10 to 20%.
Turning to GSSDSSTLPKL [GSSDSSTLPKL (SEQ ID NO: 147)], the peptide exchange yield with HLA-A*01 fell in the range of 20 to 50%.
IQMDEPMAF [IQMDEPMAF (SEQ ID NO: 43)]: in the assay with HLA-A*24, the peptide exchange yield lay within 10 to 20%.
Consider FNKRKPLSL [FNKRKPLSL (SEQ ID NO: 298)], for which the peptide exchange yield with HLA-B*08 fell in the range of 50 to 75%.
On to YLPQHTIETY [YLPQHTIETY (SEQ ID NO: 199)], for which the peptide exchange yield with HLA-A*01 was in the range of 20 to 50%.
For VIKEKALTL [VIKEKALTL (SEQ ID NO: 316)], the peptide exchange yield with HLA-B*08 was 50 to 75%.
HLLQKQTSI [HLLQKQTSI (SEQ ID NO: 302)] had a peptide exchange yield with HLA-B*08 of 50 to 75%.
Take LIFMLANVF [LIFMLANVF (SEQ ID NO: 39)]: the peptide exchange yield with HLA-A*24 lay in the range of 10 to 20%.
On to STIRGELFFF [STIRGELFFF (SEQ ID NO: 12)], for which the peptide exchange yield with HLA-A*24 was 10 to 20%.
In turn, FALPGLLHA [FALPGLLHA (SEQ ID NO: 91)] had a peptide exchange yield with HLA-A*02 of 50 to 75%.
As for ILKEDPFLF [ILKEDPFLF (SEQ ID NO: 19)], the peptide exchange yield in the assay with HLA-A*24 was in the range of 10 to 20%.
In the assay with HLA-B*08, DAIQRKYSC [DAIQRKYSC (SEQ ID NO: 309)] registered a peptide exchange yield of 50 to 75%.
